Laboratory results taken from patent US20200197440A1 (LENTIGEN TECHNOLOGY, published 2020).

B1: CAR construct LTG2098 (hScFv aCD38 CD8 TM 4-1BB CD3 zeta) (other)
chain: QVQLQQSGPGLVKPSQTLSLTCVISGDSVSSNSAAWNWIRQSPSRGLEWLGRTYYRSKWHNDYAVSVESRIIVNPDTSKNQFSLQLNSVTPEDTAVYYCARDPGYFYGLDVWGQGTMVTVSSGGGGSGGGGSGGGGSNFMLTQPHSVSESPGKTVTIPCTRSSGTIADYYVQWYQQRPDSSPIIVIYDDNQRPSGVPDRFSGSIDSSSNSASLTISGLKTEDEAAYYCQSYDSTNHWVFGGGTKLTVLGAAATTTPAPRPPTPAPTIASQPLSLRPEACRPAAGGAVHTRGLDFACDIYIWAPLAGTCGVLLLSLVITLYCKRGRKKLLYIFKQPFMRPVQTTQEEDGCSCRFPEEEEGGCELRVKFSRSADAPAYQQGQNQLYNELNLGRREEYDVLDKRRGRDPEMGGKPRRKNPQEGLYNELQKDKMAEAYSEIGMKGERRRGKGHDGLYQGLSTATKDTYDALHMQALPPR
notes: Chimeric antigen receptor on transduced human primary T cells
B2: CAR construct LTG2099 (hScFv aCD38 CD8 TM 4-1BB CD3 zeta) (other)
chain: QVTLKESGPVLVKPTETLTLTCTFSGFSLSTSGVGVAWIRQPPGKDLEWLALIYWDDDKRYSPSLESRLTITKDTSKNQVALTMSDMDPVDTATYYCARGDYWGRLDYWGQGTLVTVSSGGGGSGGGGSGGGGSDIQLTQSPSSLSASIGDRVTITCQASEDINNYLNWYQQKPGKAPKLLIYDASNLETGVPSRFSGSGSGTDFTFTINSLQPEDIATYYCQQFDNMPLTFGGGTKLEIKAAATTTPAPRPPTPAPTIASQPLSLRPEACRPAAGGAVHTRGLDFACDIYIWAPLAGTCGVLLLSLVITLYCKRGRKKLLYIFKQPFMRPVQTTQEEDGCSCRFPEEEEGGCELRVKFSRSADAPAYQQGQNQLYNELNLGRREEYDVLDKRRGRDPEMGGKPRRKNPQEGLYNELQKDKMAEAYSEIGMKGERRRGKGHDGLYQGLSTATKDTYDALHMQALPPR
notes: as for B1
B3: CAR construct LTG2090 (hScFv aCD38 CD8 TM 4-1BB CD3 zeta) (other)
chain: EVQLVESGGGSVQPGGSLRLSCAASEFTFSSYWMHWVRQAPGKGLEWVAVISYDGAKKYYADSVKGRFTISRDNSKNTLYLQMNSLRAEDTAVYYCARDDGSGGFDYWGQGTLVTVSSGGGGSGGGGSGGGGSDIVMTHTPLSLSVTPGQPASISCKSSQSLLHSDGKTYLYWYLQKPGQPPQLLIYEVSNRFSGVPDRYSGSGSGTDFTLKISRVEAEDVGVYYCMQSIQLPLTFGGGTKLEIKAAATTTPAPRPPTPAPTIASQPLSLRPEACRPAAGGAVHTRGLDFACDIYIWAPLAGTCGVLLLSLVITLYCKRGRKKLLYIFKQPFMRPVQTTQEEDGCSCRFPEEEEGGCELRVKFSRSADAPAYQQGQNQLYNELNLGRREEYDVLDKRRGRDPEMGGKPRRKNPQEGLYNELQKDKMAEAYSEIGMKGERRRGKGHDGLYQGLSTATKDTYDALHMQALPPR
notes: as for B1

Experiments:
[1] = target: CD38 on CD38-positive tumor lines RPMI-8226 and MM1.S (UniProt P28907 1-300, limits assumed); assay: cell-based or functional assay
[2] = target: T1, CD38-His peptide (Thermo Fisher Scientific) (UniProt P28907 43-300, limits assumed); assay: flow cytometry of LV-transduced primary T cells stained with CD38-His, then anti-His PE
T1 construct: Bought staining reagent, detected with anti-His-PE; also called CD38-His reagent; CD38-His tagged peptide; not shown: His tag

| Binder | tumor killing of RPMI-8226 at E:T ratio of 1:5 (so in the source) [1] [% tumor killing] | surface expression level, % CAR T+ (CD38-His staining) [2] [%] |
| --- | --- | --- |
| B1 | < 40 | > 75 |
| B2 | < 10 | > 65 |
| B3 | < 70 | > 45 |
